2 molecules from patent US20110165145A1 (published 2011) can be followed below.

Changes are numbered by the printed parent chain.

Assay [1] addresses T1, insulin-like growth factor II (IGF-II), amino acids 1-67 (human, UniProt P01344 25-91).
T1 construct: recombinant; also called IGF-II (67aa); IGF2
The assay can be described thus: competition SPR (BIACORE T100), affinity in solution, free ligand read on huIR-A ECD; measurement 1. On the procedure: (§1) Competition SPR (BIACORE®) was performed under conditions of partially mass-transport limited conditions according to previously described methodology (Nieba et al., 1996). Approximately 16,700 relative response units (RU) of huIR-A (-exon11) ectodomain was coupled by standard amine chemistry to a BIACORE® CM5 chip sensor. Uncoated flow-cell surface was used as a reference. […] Regeneration of the surface was achieved by injection of 30 ul NaCltrate/NaCl pH 4.5. […] These Req estimates were subsequently plotted against total concentrations of Fab used and the resulting inhibition curve was utilised to calculate dissociation constant (KD).

In assay [2] the target is T2, IGF-IIE (amino acids 1-104 of pro-IGF-II) (human, UniProt P01344 25-128).
T2 construct: Biotinylated in the selections; also called IGF-IIE (104aa)
The description is as above. As to the method:
as §1

In assay [3] the target is T1, insulin-like growth factor II (IGF-II), …. The assay can be described thus: competition SPR (BIACORE T100), affinity in solution, free ligand read on huIR-A ECD; measurement 2. As to the method: as §1
The target in assay [4] is T2, IGF-IIE (amino acids 1-104 of …). Described as above. On the procedure:
as §1

Assay [5] concerns the target T3, insulin-like growth factor I (IGF-I) (UniProt P05019 49-118). Put plainly: cell-based or functional assay.
Assay [6] deals with T1, insulin-like growth factor II (IGF-II), …. Put plainly: SPR (value equals that of Table 6, there under IgGs); Fab, not IgG.
Assay [7] has the same target. Put plainly: SPR (Flexchip), Fab, 1st of duplicate.
For assay [8], the target named is T2, IGF-IIE (amino acids 1-104 of …). The assay can be described thus: SPR (Flexchip), Fab, 1st of duplicate.
For assay [9], the target named is T1, insulin-like growth factor II (IGF-II), …. Put plainly: cell-based or functional assay.
Assay [10] deals with T2, IGF-IIE (amino acids 1-104 of …). The assay can be described thus: cell-based or functional assay.
In assay [11] the target is T1, insulin-like growth factor II (IGF-II), …. The assay can be described thus: SPR, compared with DX-2647. (In general: SPR reads the build-up and loss of mass on a sensor chip optically.)
Assay [12] has the same target. Put plainly: SPR (Flexchip), Fab, 2nd of duplicate.
For assay [13], the target named is T2, IGF-IIE (amino acids 1-104 of …). Put plainly: SPR (Flexchip), Fab, 2nd of duplicate.
The target of assay [14] is T1, insulin-like growth factor II (IGF-II), …. The assay can be described thus: SPR, IgG captured on anti-human Fc chip, ligand as analyte.
The next assay has as its target T4, IGFBP-1 (UniProt P08833 26-259).
T4 sequence (looked up): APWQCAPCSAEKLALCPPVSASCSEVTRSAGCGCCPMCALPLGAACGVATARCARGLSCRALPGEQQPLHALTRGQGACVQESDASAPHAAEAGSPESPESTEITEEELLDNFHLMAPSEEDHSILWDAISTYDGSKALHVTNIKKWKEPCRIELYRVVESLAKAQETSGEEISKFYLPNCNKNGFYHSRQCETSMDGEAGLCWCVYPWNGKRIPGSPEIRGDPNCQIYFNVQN
Put plainly: SPR: DX-2647 captured through its Fc, IGFBP-1 alone injected; concentration not on the sheet.

Assay [15] deals with T3, insulin-like growth factor I (IGF-I). The assay can be described thus: SPR, captured IgG, 1:1 binding model.
The target in assay [16] is T1, insulin-like growth factor II (IGF-II), …. The assay can be described thus: SPR, captured IgG, 1:1 binding model.
The target in assay [17] is T2, IGF-IIE (amino acids 1-104 of …). The assay can be described thus: SPR, captured IgG, 1:1 binding model.
Assay [18] concerns the target pre-formed complex of IGF-II and IGFBP-1 (human, UniProt P08833 26-259). The assay can be described thus: SPR: DX-2647 captured through its Fc, pre-formed IGF-II/IGFBP-1 complex injected; concentration not on the sheet.
Assay [19] has as its target T3, insulin-like growth factor I (IGF-I). Put plainly: SPR.

T3 sequence (P05019 49-118 limits assumed): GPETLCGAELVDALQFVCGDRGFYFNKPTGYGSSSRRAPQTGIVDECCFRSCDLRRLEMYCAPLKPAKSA
T2 sequence (P01344 25-128): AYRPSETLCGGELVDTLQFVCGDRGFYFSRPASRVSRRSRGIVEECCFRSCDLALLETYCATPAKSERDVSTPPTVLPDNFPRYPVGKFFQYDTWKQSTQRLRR
T1 sequence (P01344 25-91): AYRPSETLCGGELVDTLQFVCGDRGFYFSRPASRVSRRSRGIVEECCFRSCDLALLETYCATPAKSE

B1: M0064-F02 Fab (Fab, V domains shown)
VH: EVQLLESGGGLVQPGGSLRLSCAASGFTFSNYIMWWVRQAPGKGLEWVSVISSSGGMTRYADSVKGRFTISRDNSKNTLYLQMNSLRAEDTAVYYCARDNGDYVGEKGFDIWGQGTMVTVSS
VL: DIQMTQSPSSLSASVGDRVTITCRASQSISNYLNWYQQKPGKAPKLLIYTASTLQSGVPSRFSGSASGTDFTLTINSLQPEDFATYSCQQSYNSPWTFGQGTKVEIKR
notes: soluble Fab (sFab); also the Fab crystallised with IGF-II; also called R0032-A11; 566A-M0064-F02
For orientation: Kd means the equilibrium constant for the complex coming apart. As for B1, the Kd in assay [1] was 1.03 nM; in assay [2] it was 1.91 nM; in assay [3] it was 0.503 nM; in [4], 0.352 nM; in assay [6], 0.14 nM; in assay [7] it was 0.45 nM. Besides, the Kd stood at 0.32 nM in [8], 1.2 nM in assay [12] and 0.29 nM in [13]. Moreover, in assay [5], the “IGF-I stimulated Ba/F3 cell proliferation, sFab at 50 µg/ml” value was around 30 % inhibition. Also, the “IC50, IGF-II stimulated Ba/F3 cell proliferation (MTS)” value in assay [9] turned out to be 0.68 µg/mL. Besides, the “IC50, IGF-IIE stimulated Ba/F3 cell proliferation (MTS)” value in [10] was determined as 3.12 µg/mL. The “fold less affinity than DX-2647” value in assay [11] amounted to 7 fold.

B2: DX-2647 (antibody, human IgG1, kappa, V domains shown)
VH: B1 VH with M57G, R59L
VL: B1 VL with A66G, N76S, S87Y
notes: human IgG1, germlined from 566A-M0064-F02, expressed in CHOK1SV cells
The term koff denotes a measure of how fast the partners let go of each other. Higher therefore signals fast dissociation. Broadly, the kon is the second-order rate constant of association. On to B2, for which the Kd in [14] was 0.023 nM; in assay [15] it was 17 nM; in assay [16], 0.0226 nM; in assay [17], below 0.023 nM; in assay [19], 28 nM. The binding result (with IGFBP-1; in assay [18]) was “no binding” in each case. Besides, the koff in assay [15] is 0.1 s⁻¹; in assay [16] it was 2.38e-05 s⁻¹; in assay [17], below 2e-05 s⁻¹. The on-rate constant (kon) in [15] came to 5.8e+06 M⁻¹ s⁻¹; in [16], 1.06e+06 M⁻¹ s⁻¹; in assay [17], 2.06e+06 M⁻¹ s⁻¹.
